According to patent US20260152568A1 (NECTIN THERAPEUTICS, published 2026):
Residue numbers refer to the chain shown, from its start. Numbers in names are those of the source.

T1: PVR conjugated to Histidine tag (PVR-HIS, Sino Cat. no. 10109-H08H) (Homo sapiens (Human), UniProt P15151 21-343)
T1 construct: Bought reagent; also called PVR-HIS tagged
T1 sequence: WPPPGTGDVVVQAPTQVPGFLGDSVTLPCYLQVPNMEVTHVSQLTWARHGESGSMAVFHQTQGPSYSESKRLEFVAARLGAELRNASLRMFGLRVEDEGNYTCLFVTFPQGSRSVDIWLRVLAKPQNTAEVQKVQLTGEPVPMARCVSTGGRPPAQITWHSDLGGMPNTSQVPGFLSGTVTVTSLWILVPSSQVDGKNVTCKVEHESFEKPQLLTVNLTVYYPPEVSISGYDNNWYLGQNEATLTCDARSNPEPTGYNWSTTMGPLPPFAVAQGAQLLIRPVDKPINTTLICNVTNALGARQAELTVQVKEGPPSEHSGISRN

T2: chlorocebus (African green monkey) PVR expressed on Vero cells (chlorocebus (African green monkey), UniProt P32506 21-417)
T2 construct: whole, on cells; also called chlorocebus PVR
T2 sequence (looked up): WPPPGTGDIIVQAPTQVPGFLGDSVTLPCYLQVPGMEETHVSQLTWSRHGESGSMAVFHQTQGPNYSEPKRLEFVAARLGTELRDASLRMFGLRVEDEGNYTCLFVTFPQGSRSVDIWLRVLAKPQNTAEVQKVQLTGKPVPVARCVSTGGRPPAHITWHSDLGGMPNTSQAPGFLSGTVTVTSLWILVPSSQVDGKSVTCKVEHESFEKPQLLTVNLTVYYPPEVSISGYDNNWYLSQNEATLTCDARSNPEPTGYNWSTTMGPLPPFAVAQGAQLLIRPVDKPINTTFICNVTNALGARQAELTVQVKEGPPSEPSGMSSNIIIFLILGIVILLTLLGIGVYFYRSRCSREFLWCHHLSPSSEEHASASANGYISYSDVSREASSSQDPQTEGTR

T3: human PVR (SPR of the humanized variants, Example 5) (human, UniProt P15151 21-343)
T3 sequence: T1 sequence

B1: chimeric anti-PVR antibody 5B9 wild type, IgG4 (S241P), VH0/VK0 (antibody, V domains shown)
VH: QVQLQQSGAELMKPGASVKISCKATGYTFSNYWIEWIKQRPGHGLEWIGEIFPGSGRINFNEKFKGKATFTADTSSDTTYMQLSSLTSADSAVYYCARTKIYGNSFDYWGQGTTLTVSP
VL: DIMMTQSHKFMSTSVGDRVNITCKASQDVGTAVVWYQQKPGQSPKLLIYWASSRHNGVPDRFTGSGSGTDFTLTISNVQSEDLSDYFCQQYSRYPLTFGAGTKLELK
notes: Mouse/human chimeric antibody with human IgG4 (S241P) constant region; also called WT; parental N56 variant (VH0VK0)
B2: IgG4(S241P)_N56E_VH1/Vκ4 (antibody, V domains shown)
VH: B1 VH with Q5V, M12K, R40A, H43Q, K67R, S76I, A89D, L115V, P119S
VL: DIQMTQSPSSLSASVGDRVTITCRASQDVGTAVAWYQQKPGKAPKSLIYWASSRHEGVPSRFSGSGSGTDFTLTISSLQPEDFATYFCQQYSRYPLTFGQGTKLEIK
notes: humanized 5B9 variant with Vk4; also called VH1/Vk4
B3: IgG4(S241P)_N56E_VH0/Vκ1 (antibody, V domains shown)
VH: B1 VH
VL: B2 VL with Q3M, S10F, R24K, A34V, S46L, S60D, S63T, P80S, T85D
notes: half-humanized control pairing; also called VH0/Vk1
B4: humanized 5B9 variant VH1/VK1 (antibody, V domains shown)
VH: B1 VH with Q5V, M12K, R40A, H43Q, K67R, S76I, A89D, L115V, P119S
VL: B2 VL with Q3M, S10F, R24K, A34V, S46L, S60D, S63T, P80S, T85D
B5: IgG4(S241P)_N56E_VH1/Vκ0 (antibody, V domains shown)
VH: B1 VH with Q5V, M12K, R40A, H43Q, K67R, S76I, A89D, L115V, P119S
VL: B1 VL with N56E
notes: half-humanized control pairing; also called VH1/Vk0
B6: VH0/Vκ0 Pro56 (antibody, V domains shown)
VH: B1 VH
VL: B1 VL with N56P
notes: chimeric 5B9 N56 substitution variant; also called N56P
B7: humanized 5B9 variant VH3/VK2 (antibody, V domains shown)
VH: QVQLVQSGAEVKKPGASVKVSCKATGYTFSNYWIEWIKQAPGQGLEWIGEIFPGSGRINFNEKFKGRVTFTADTSISTTYMELSRLRSDDTAVYYCARTKIYGNSFDYWGQGTLVTVSS
VL: B2 VL with R24K, A34V, S46L, S60D, T85D
B8: IgG4(S241P)_N56E_VH2/Vκ4 (antibody, V domains shown)
VH: B7 VH with V20I, V68A, S77D
VL: B2 VL
notes: humanized 5B9 variant with Vk4; also called VH2/Vk4
B9: humanized 5B9 variant VH4/VK1 (antibody, V domains shown)
VH: B7 VH with I37V, K38R
VL: B2 VL with Q3M, S10F, R24K, A34V, S46L, S60D, S63T, P80S, T85D
B10: humanized 5B9 variant VH5/VK1 (antibody, V domains shown)
VH: B7 VH with I37V, K38R, I48M, T79A
VL: B2 VL with Q3M, S10F, R24K, A34V, S46L, S60D, S63T, P80S, T85D
B11: IgG4(S241P)_N56E_VH5/Vκ4 (antibody, V domains shown)
VH: B7 VH with I37V, K38R, I48M, T79A
VL: B2 VL
notes: humanized 5B9 variant with Vk4; also called VH5/Vk4
B12: humanized 5B9 variant VH1/VK2 (antibody, V domains shown)
VH: B1 VH with Q5V, M12K, R40A, H43Q, K67R, S76I, A89D, L115V, P119S
VL: B2 VL with R24K, A34V, S46L, S60D, T85D
B13: humanized 5B9 variant VH5/VK3 (antibody, V domains shown)
VH: B7 VH with I37V, K38R, I48M, T79A
VL: B2 VL with A34V, S46L
B14: humanized 5B9 variant VH3/VK1 (antibody, V domains shown)
VH: B7 VH
VL: B2 VL with Q3M, S10F, R24K, A34V, S46L, S60D, S63T, P80S, T85D
B15: humanized 5B9 variant VH2/VK1 (antibody, V domains shown)
VH: B7 VH with V20I, V68A, S77D
VL: B2 VL with Q3M, S10F, R24K, A34V, S46L, S60D, S63T, P80S, T85D
B16: humanized 5B9 variant VH5/VK2 (antibody, V domains shown)
VH: B7 VH with I37V, K38R, I48M, T79A
VL: B2 VL with R24K, A34V, S46L, S60D, T85D
B17: humanized 5B9 variant VH2/VK2 (antibody, V domains shown)
VH: B7 VH with V20I, V68A, S77D
VL: B2 VL with R24K, A34V, S46L, S60D, T85D
B18: humanized 5B9 variant VH4/VK3 (antibody, V domains shown)
VH: B7 VH with I37V, K38R
VL: B2 VL with A34V, S46L
B19: IgG4(S241P)_N56E_VH3/Vκ4 (antibody, V domains shown)
VH: B7 VH
VL: B2 VL
notes: humanized 5B9 variant with Vk4, as IgG4; also called VH3/Vk4
B20: humanized 5B9 variant VH3/VK3 (antibody, V domains shown)
VH: B7 VH
VL: B2 VL with A34V, S46L
B21: humanized 5B9 variant VH1/VK3 (antibody, V domains shown)
VH: B1 VH with Q5V, M12K, R40A, H43Q, K67R, S76I, A89D, L115V, P119S
VL: B2 VL with A34V, S46L
B22: humanized 5B9 variant VH2/VK3 (antibody, V domains shown)
VH: B7 VH with V20I, V68A, S77D
VL: B2 VL with A34V, S46L

Legend:
[1] = target: T1, PVR conjugated to Histidine tag …; assay: SPR (Biacore T200), antibody captured on Protein A chip, PVR-HIS as analyte, 1:1 binding
Description: (§1) Seven chimeric variants were generated by introducing a point mutation at residue asparagine N56. […] Binding was tested for the analyte PVR conjugated to Histidine tag (PVR-HIS, Sino Cat. no. 10109-H08H). Dilution range: Five point two-fold dilution from 50 nM to 3.125 nM. Conditions used: Instrument: Biacore T200 (serial no. 1909913) running Biacore T200 Evaluation Software V2.0.1. Running buffer: HBS-P+, 300 mM NaCl, 1 mg/ml BSA. Flow rate: […]. Association: 350 s, Dissociation: 800 s. Regeneration: 10 mM glycine pH 1.5. Analysis: 1:1 binding.

[2] = target: T2, chlorocebus (African green monkey) PVR …; assay: flow cytometry, 10 ug/ml antibody on Vero cells; MFI divided by the MFI of K0
Description: FIGS. 2A-2B. […] To assess maximal binding, saturating dose (10 ug/ml) of the N56 variant monoclonal antibodies (shown at the X axis) were used to stain PVR-expressing cells, and mean fluorescence intensity (MFI) values were determined by FACS analysis. […] (FIG. 2A) NCI-H1975 (human lung) cells and (FIG. 2B) Vero (African green monkey kidney) cells. Affinity shifts of >25% were considered significant.
The binding of the N56 substitution variant antibodies to cell bound PVR of human (protein id: Q92692) and chlorocebus (African green monkey, protein id: UniProtKB—P32506) was examined. FIG. 2A depicts the relative binding of all variants, which were added in saturating concentration (10 ug/ml), to NCI-H1975 cells expressing human PVR. FIG. 2B depicts the relative binding of all variants, which were added in saturating concentration (10 ug/ml), to Vero cells expressing chlorocebus PVR. […] Cell binding of the Abs was analyzed by FACS.

[3] = target: T1, PVR conjugated to Histidine tag …; assay: SPR (Biacore T200); KD divided by the KD of VH0/Vκ0 WT
Description: FIGS. 1A-1B. Affinity and competition assays of N56 substitutions. FIG. 1A. […] Biacore assay showing relative and absolute affinity of the N56 substitutions (hIgG4 variants) to PVR-HIS tagged (Sino Cat. no. 10109-H08H). Affinity shift of >25% were considered significant.
as §1

[4] = target: T3, human PVR (SPR of the humanized …); assay: SPR
[5] = target: T3, human PVR (SPR of the humanized …); assay: SPR; relative to N56E VH0/Vκ0
[6] = target: human poliovirus receptor (PVR, CD155) expressed on cells (human) (UniProt P15151); assay: flow cytometry, binding to PVR-expressing HEK 293 cells; relative to N56E VH0/Vκ0
[7] = target: human poliovirus receptor (PVR, CD155) expressed on cells (human) (UniProt P15151); assay: flow cytometry, binding to PVR-expressing HEK 293 cells

Binder | Kd [4] | Relative KD [5] | Relative EC50 [6] | EC50 [7] | other results
B1 |  |  |  |  | Kd [1]: 5.12 nM; koff [1]: 0.000715 s⁻¹; kon [1]: 140000 M⁻¹ s⁻¹; Fold change MFI [2]: 1; Relative KD [3]: 1
B2 | 69.3 nM | 12.5 |  |  | 
B3 | 4.03 nM | 0.73 |  |  | 
B4 | 4.17 nM | 0.75 |  |  | 
B5 | 4.5 nM | 0.81 |  |  | 
B6 |  |  |  |  | Kd [1]: 7.58 nM; koff [1]: 0.00105 s⁻¹; kon [1]: 138000 M⁻¹ s⁻¹; Relative KD [3]: 1.48
B7 | 4.32 nM | 0.78 | 0.66 | 0.52 nM | 
B8 | 78.3 nM | 14.1 |  |  | 
B9 | 4.62 nM | 0.83 |  |  | 
B10 | 5.91 nM | 1.07 |  |  | 
B11 | 76.8 nM | 13.9 |  |  | 
B12 | 4.01 nM | 0.72 |  |  | 
B13 | 7.41 nM | 1.34 | 0.72 | 0.57 nM | 
B14 | 4.56 nM | 0.82 |  |  | 
B15 | 3.96 nM | 0.71 |  |  | 
B16 | 5.68 nM | 1.03 | 0.82 | 0.64 nM | 
B17 | 4.67 nM | 0.84 | 0.81 | 0.64 nM | 
B18 | 5.11 nM | 0.92 | 0.75 | 0.59 nM | 
B19 | 75.2 nM | 13.6 |  |  | 
B20 | 5.42 nM | 0.98 | 0.68 | 0.53 nM | 
B21 | 4.98 nM | 0.9 |  |  | 
B22 | 5.14 nM | 0.93 | 0.76 | 0.6 nM | 
